Reference: the DeepSol protein solubility set

Test: soluble on expression in E. coli; label from the status in PepcDB or PDB records

Sequence	soluble on expression in E. coli
MSVEFYNQNAQQFFSSTVEVDSTSLLDQFVPYLPQGGLVLDAGCGSGRDSKRFLDMGYQIDAFDASAPLAALAEELLNQSVTVTTFENFTSSKRYDGIWACASLLHVTRESLPETFAHLAKMLKCGGAFYCSFKYGQDEVERDGRRFTNCNEVLLNQLLTSSPLAIDKLWVTQDLRAGREHEQWLNAILIKRLEHHHHHH	soluble
MAGEAGQPSEPLNLLAGMAAAPWDYDFFQALRRIECESPQLPRLGHSVRLADDPLRLGQKPDCTFAPSTLASVSQAGTAAVPRLDQFFFGLTGPNGPLPLHLTEYARERQRNVNDATFKRFMDVFHHRLLTLFYRAWAEARPEISHDRIDDDYWSARLAALSGRGMPSLRGREPLADTARYYYTGHLAAQTRYPDGLRVILAEYFEVPVAVEEYVGQWLELPERSRLGVDSTSLGMDVCLGTHVWDRQHKFRLRLGPLDLDQYQRFLPDGDHFVELAAWVAEYLGEELDWDVNLVLQRHEVPPLGLQGGGRLGFNTWLGDPGQDARDLLLARQYATARPHEHKEKEHE	not soluble
MEGGSITPGEDKPEIQSPIPPNQIFILSGQSNMAGRGGVFKDHHNNRWVWDKILPPECAPNSSILRLSADLRWEEAHEPLHVDIDTGKVCGVGPGMAFANAVKNRLETDSAVIGLVPCASGGTAIKEWERGSHLYERMVKRTEESRKCGGEIKAVLWYQGESDVLDIHDAESYGNNMDRLIKNLRHDLNLPSLPIIQVAIASGGGYIDKVREAQLGLKLSNVVCVDAKGLPLKSDNLHLTTEAQVQLGLSLAQAYLSNFC	soluble
MGHHHHHHSHMATGTPESQARFGQSVKGLLTEKVTTCGTDVIALTKQVLKGSRSSELLGQAARNMVLQEDAILHSEDSLRKMAIITTHLQYQQEAIQKNVEQSSDLQDQLNHLLK	not soluble
MIENHLYSLVTVVKYKLLPCLLAIFLTGCDRTEVTLSFTPEMASFSNEFDFDPLRGPVKDFTQTLMDEQGEVTKRVSGTLSEEGCFDSLELLDLENNTVVALVLDANYYRDAETLEKRVRLQGKCQLAELPSAGVSWETDDNGFVIKASSKQMQMEYRYDDQGYPLGKTTKSNDKTLSVSATPSTDPIKKLDYTAVTLLNNQRVGNVKQSCEYDSHANPVDCQLIIVDEGVKPAVERVYTIKNTIDYY	not soluble
MLEKLWPFGRSRVRKAVEEALEKAFQDVGEVLEPLSELSEHEDHYLLRVEVPGLGPENLEVRLEGDQLVIEGEKREEKRAKHLAEIVYGRIYRAYLLPKDAKKEGIEARLAKGVLEVRIPREKRPEEPPVRIPIQES	soluble
MGSDKIHHHHHHMVIIHSKDLVNWTIKGHVVSDLRQISEEMNWTRMNRYGRGIWAGAIRYYQGKFYVYFGTPDEGYFMSTATDPAGPWEPLHCVKAEKGWDDCCPFFDDDGQLYFVGTHFADKYKTYLYRMTPDGKTLIENSKILINEGYGREASKLYKINGTYYHFFSEVKNGGRYIMMQRSSSITGPYLERKQLSHVQREYNEPNQGGLVEGPDRKWYFFTHHGTGDWAGRIASLLPVYWVDGWPIIGEVGQDGIGTMVWQAAKPSNEYPVRTPQSSDDFSKSVLSPQWEWNYQPRDEMWSLTERPGNLRLKAFRPLVTDNLLKAGNTLTQRCFRTNKNEVIVKMNIEGMVDGQKAGLCHYSKSYAMVGVRQSGKDRNLEFQTNKEKITGPAIKGNKVWIKSVWGLDGKSQFSYSTDGRKFTPFGEVYQLEWGYYRGSRIGIYCFNNIADAGYIDVDEFIYLY	not soluble
MSLFTFKKGLHLPYNKEFTKDKSIEIFKPKKELIFPLSQHIGAPCEPIVEVGQKVLVNEKIADSSAFVSSPIHSSVSGTIKDIREIQSINGSNTQAIIIENDSKYEKYPKENLKYSSKLSLKDVVKLVKDYGIVGLGGATFPCHVKLNVKEDKEIKYIIINAAECEPYLTCDHRVMLEYTEEIIGGLRILLELFPKALIYIGIEDNKLNAIDKFKSILGEDNKIKVMPLKSKYPQGSEKHLIYALTKLQVPSGKLPLDIGCIAFNVSTIYQLYASLINGLPLTERIITVTGDSIRSPKNLRVKIGTQVKDIIEFCGGFINKPNKIILGGPMMGTSVNSLDLPITKGTSGILCLSKVDTSPNSHCIRCGKCLNSCPMNLIPQKLNELALKDKFDEFEFLGGMDCLECGCCTFSCPAKISIVNNIRNAKKSLRNKSKNLEHHHHHH	soluble
MSLSAAEALTRIDRFVCDIKETQYGDGLHVFGAGDHGTGEIDGLIAALSARFVPPGPSGSPYRGRSDVRPTGRNLFTTDPRAVPSRAAYTQGVKLAEELLRKHLQDHGDWPKGLVMDMWGSATIRTAGEEFAMALHLAGLSPRWDDGSDRVSGFDILPLALLNRPRIDVTLRVSGLFRDMFPGLAQLFETAIAKLAERPETAADNPYLVQTPRVFGPRPGSYGLGIGTAMDDYSDEARTAAGEAWLAASSYAIDARGEITYARDALETQLTRADSFVHLQDLPETDLLMAEDYAAHEAGFAAAMQRLGKGGAAALYHLDATRPDQPRARTLTEELARVVRARAANPDWATGMMAHGFRGAAEIAATLDHLAAFAHLAGVVPDHLFDAMFDATLGRDDLVDFMQDANPQALAALRARFDALHRAGLWTSRRNSVLAELGTPAEGHHHHHH	soluble
MGSDKIHHHHHHMIKLIATDIDGTLVKDGSLLIDPEYMSVIDRLIDKGIIFVVCSGRQFSSEFKLFAPIKHKLLYITDGGTVVRTPKEILKTYPMDEDIWKGMCRMVRDELPACDYFAATPDFCFAEDGGSPIFHLLRDSYGFEMREVDDITRLDRNDIIKFTVFHPDKCEELCTPVFIPAWNKKAHLAAAGKEWVDCNAKGVSKWTALSYLIDRFDLLPDEVCCFGDNLNDIEMLQNAGISYAVSNARQEVIAAAKHTCAPYWENGVLSVLKSFL	not soluble
MSQVTRVYAGRLAGMIVRGPDTDAIGRVRDVIVNVRPNGQPSRVLGLVVEMMNNRKIFLPMLRVAAIEPQEITLVSGSVSLRAYKPRNGEVAIIADIVGSKVHIDDPELDHLHGRPVEVADIELERTRTRDWAISRVAVIGERPKFGRRPELFTCPWSHVHGISAGGVGITDAAAELIAEFEDMRPADIATVLYELPDAQRANVAKELDDDRLADVLQEMSEDRQAELIETLDIERAADVLEEMDPDDAADLLGELDDDKADVLLELMDPEESAPVRRLMSFSPDTVGALMTPEPLILSPQTTVAEALALARNPDLPTSLASIVFVVRPPTATPTGKYLGCVHLQKLLREPPSELVSGILDPDLPPLWASDSQETAARYFATYNLVCGPVVDNDNHLLGAVAVDDLLDHMLPDDWRDTGIRPDETPKEV	not soluble
MKLYLIGLGPGDPELLTLKALRLIQRLPVLFYPKEEGREPVALGIARPFLPEGKPLLPLPLFTGGDPKEAERARREAARRVREALSRYGEGGYLVLGDSLLYASPLNLLPHLEGVAVEAVPGISAHQLAAASLLKPIALGEEGFAAVTGLGPVDPEGLDRFQSVFVYKAKDLEALERAFPDREGWAFLRLGMPGERVLPLGAAKGVARDYWTLVGLWRKGGEG	soluble
SLSDPIIDMHLHASAADEQGPPPLAMCAPINPMPTWDQRQPWTTGLIAMFKAPKCADPIWSPTTDDEIRDKTLAIMAKRNIIGVVSGPYKRVMAWRALAPDRVLPGLMPTMSDLSKPKVLLDDFGKAKAAGQLAVIGELGFQYEGIAPNDPRLENLWAAAEAADVPVAIHIGPGPPGVAYLPGGGYRARMSSPLLLEDVLVKHPKLRINVMHAGYPMLDDTLALLYAHPQVYVDTGVIVYSQPRPAFYRYLQTLVDAGFGERVMFGSDQMVWPETIERSIAVIDEAPFLSAQQKRDILYNNAARFLRLDEATQAKHRAM	soluble
MDNFSLLTTPWLPVRFKDGSTGKLAPVDLADENVVDIAATRADLQGAAWQFLLGLLQCSIAPKRYKNWEDIWFDGLHADVLHKALAPLEHAFQFGAETPSFMQDFEPLSGEKVSIASLLPEIPGAQTTKFNKDHFVKRGVTERFCPHCAALALFSLQLNAPAGGKGYRTGLRGGGPLTTLVELQEYQGERQTPLWRKLWLNVMPQDTADLPLPDQCDATVFPWLAATRTSEQANAVTTPEQVNKLQAYWGMPRRIRLDFATLQSGCCDICGAESDELLGFMTVKNYGVNYDGWRHPLTPYRAPVKDQNAFFSVKPQPGGLIWRDWLGLSQNNQTEANYESPAQVVKVFNARSLTDVKAGIWGFGADFDNMKIRCWYEHHFPLLMTEGLIPDLRKAVQTAARLLSLLRSALKEAWFADAKGARGDFSFIDIDFWNLTQGRFLNLIHDLENGHKPDERLNKWQRELWLFTRHYFDDHVFTNPYESSDLERIMTARKKYFTTSAEKQSAKAAKAKKQEAAE	not soluble
MIFEVPIDHFPASSQQVSKTREHKPLRLSTVSLHSKEVNAAVAPLSPSVRRSQFNFSSEVTKSALPKVRASIPPLKRALTSPALPVQHLNLNLVRKGSNPSSQTSRNNSVTDLLKSELFKMPSRLLSTAVSLHQLA	not soluble
MAGDPMKVFVVNLDKDKDKKEKIKNECRNAELDYEIISAVDGRELSYNELKSKVHPVSLNYLSKGEIGCVLSHQRIYKRILDDDIDYALILEDDVELSQDIKVFLKEFLSVKDKNKGDVFLLYPSGLRFLNRRINVSHDYFFYEAYNSSCAHGYIISNKAAKKLIRINTPIILVADAWLWFYQISLLKVYVLNKELVRAYDVDKSLSTIETERSLLLDEKEKHQMQIIKKQPLYYLIKYYHKYIRRLFINKDKLEHHHHHH	soluble
SAPEENAGTELLLQSFERRFLAARTLRSFPWQSLEAKLRDSSDSELLRDILHKTVKHPVCVKHPPSVKYARCFLSELIKKHEAVHTEPLDELYEALAETLMAKESTQGHRSYLLPSGGSVTLSESTAIISYGTTGLVTWDAALYLAEWAIENPAVFTNRTVLELGSGAGLTGLAICKMCRPRAYIFSDCHSRVLEQLRGNVLLNGLSLEADITAKLDSPRVTVAQLDWDVATVHQLSAFQPDVVIAADVLYCPEAIMSLVGVLRRLAACREDQRAPEVYVAFTVRNPETCQLFTTELGRAGIRWEVEPRHEQKLFPYEEHLEMAMLNLTL	soluble
VMGNEYPDWIWGLSTTLRYKDWTLGISLDGRVGGMAYSRTEQTMWNTGVHPDSDNKWRYDEVVNGKKNYVGQGVKVVSGKVEYDTTGKIVSDTRVFAPNDTQVSYESYIKNYNPWSGGKVYQNVHDCTFLKLRELSLLYTMPKSVCEKIHMKGVTLGLIGQNLLIWMKEFKYADPDVDSDDLNSPSMRYVGFNVKFDL	not soluble
ASSPANKVYQDRFESMYSKIKDPANGYFSEQGIPYHSIETLMVEAPDYGHVTTSQAMSYYMWLEAMHGRFSGDFTGFDKSWSVTEQYLIPTEKDQPNTSMSRYDANKPATYAPEFQDPSKYPSPLDTSQPVGRDPINSQLTSAYGTSMLYGMHWILDVDNWYGFGARADGTSKPSYINTFQRGEQESTWETIPQPCWDEHKFGGQYGFLDLFTKDTGTPAKQFKYTNAPDADARAVQATYWADQWAKEQGKSVSTSVGKATKMGDYLRYSFFDKYFRKIGQPSQAGTGYDAAHYLLSWYYAWGGGIDSTWSWIIGSSHNHFGYQNPFAAWVLSTDANFKPKSSNGASDWAKSLDRQLEFYQWLQSAEGAIAGGATNSWNGRYEAVPSGTSTFYGMGYVENPVYADPGSNTWFGMQVWSMQRVAELYYKTGDARAKKLLDKWAKWINGEIKFNADGTFQIPSTIDWEGQPDTWNPTQGYTGNANLHVKVVNYGTDLGCASSLANTLTYYAAKSGDETSRQNAQKLLDAMWNNYSDSKGISTVEQRGDYHRFLDQEVFVPAGWTGKMPNGDVIKSGVKFIDIRSKYKQDPEWQTMVAALQAGQVPTQRLHRFWAQSEFAVANGVYAILFPD	soluble
